# B1: Serine/threonine-protein kinase SRK2E (Arabidopsis thaliana (Mouse-ear cress)), Q940H6 (parent)
# chain: MDRPAVSGPMDLPIMHDSDRYELVKDIGSGNFGVARLMRDKQSNELVAVKYIERGEKIDENVKREIINHRSLRHPNIVRFKEVILTPTHLAIVMEYASGGELFERICNAGRFSEDEARFFFQQLISGVSYCHAMQVCHRDLKLENTLLDGSPAPRLKICDFGYSKSSVLHSQPKSTVGTPAYIAPEVLLKKEYDGKVADVWSCGVTLYVMLVGAYPFEDPEEPKNFRKTIHRILNVQYAIPDYVHISPECRHLISRIFVADPAKRISIPEIRNHEWFLKNLPADLMNDNTMTTQFDESDQPGQSIEEIMQIIAEATVPPAGTQNLNHYLTGSLDIDDDMEEDLESDLDDLDIDSSGEIVYAM
# partner: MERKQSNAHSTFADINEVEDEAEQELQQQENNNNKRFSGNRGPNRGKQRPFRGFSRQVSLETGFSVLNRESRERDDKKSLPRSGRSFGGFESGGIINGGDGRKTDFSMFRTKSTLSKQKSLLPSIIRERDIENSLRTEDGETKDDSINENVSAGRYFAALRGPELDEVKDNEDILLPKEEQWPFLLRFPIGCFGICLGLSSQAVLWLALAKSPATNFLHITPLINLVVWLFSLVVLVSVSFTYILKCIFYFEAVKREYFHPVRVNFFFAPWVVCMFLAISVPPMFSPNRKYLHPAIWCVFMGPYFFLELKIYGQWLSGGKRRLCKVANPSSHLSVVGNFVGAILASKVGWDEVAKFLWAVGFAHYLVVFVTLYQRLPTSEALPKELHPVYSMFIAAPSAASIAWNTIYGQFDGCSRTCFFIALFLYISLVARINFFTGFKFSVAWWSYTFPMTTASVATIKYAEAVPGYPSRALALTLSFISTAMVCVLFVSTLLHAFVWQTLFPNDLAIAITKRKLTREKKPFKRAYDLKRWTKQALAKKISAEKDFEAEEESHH
# Variants of: B1
# Settings: with slac1_arath SLAC1, Q9LD83
row,Variant,effect of a mutation on the interaction
1,D140A,disrupting interaction

# Reference: IntAct's records for PubMed 19955405
